Measured values published in patent publication US8324357, “Universal fieldable assay with unassisted visual detection” (University of Southern California).

Tests used:
VEGF165 = VEGF165 (Homo sapiens, UniProt P15692-4 P15692-4:27-191); assay: EMSA; IC buffer, 3 mM CaCl2; conditions: tags: R&D Systems or USB; chain copies: 2 (inferred)
[1] = biological target: Russell's viper venom factor X activator (RVV-X) (UniProt Q7LZ61;Q4PRD1;Q4PRD2 Q7LZ61:189-619,Q4PRD1:24-146,Q4PRD2:25-158); assay: EMSA; conditions: tags: Haematologic Technologies
Chain of Russell's viper venom factor X activator (RVV-X) (Q7LZ61 189-619, chain 1 of 3): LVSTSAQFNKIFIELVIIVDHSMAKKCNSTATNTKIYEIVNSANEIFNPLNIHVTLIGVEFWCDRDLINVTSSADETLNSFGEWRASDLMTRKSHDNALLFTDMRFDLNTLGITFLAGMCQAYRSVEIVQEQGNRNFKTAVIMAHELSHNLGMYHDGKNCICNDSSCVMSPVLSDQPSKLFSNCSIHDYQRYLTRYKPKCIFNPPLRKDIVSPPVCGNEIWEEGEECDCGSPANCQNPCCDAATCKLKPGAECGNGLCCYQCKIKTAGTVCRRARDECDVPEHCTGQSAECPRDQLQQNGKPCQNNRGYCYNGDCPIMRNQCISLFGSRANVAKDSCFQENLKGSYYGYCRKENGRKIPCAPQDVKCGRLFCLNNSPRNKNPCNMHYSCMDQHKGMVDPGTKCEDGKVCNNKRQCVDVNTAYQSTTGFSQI
Chain of Russell's viper venom factor X activator (RVV-X) (Q4PRD1 24-146, chain 2 of 3): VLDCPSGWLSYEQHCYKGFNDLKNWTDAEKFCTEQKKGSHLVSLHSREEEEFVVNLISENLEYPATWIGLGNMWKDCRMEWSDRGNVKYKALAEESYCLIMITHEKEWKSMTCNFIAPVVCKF
Chain of Russell's viper venom factor X activator (RVV-X) (Q4PRD2 25-158, chain 3 of 3): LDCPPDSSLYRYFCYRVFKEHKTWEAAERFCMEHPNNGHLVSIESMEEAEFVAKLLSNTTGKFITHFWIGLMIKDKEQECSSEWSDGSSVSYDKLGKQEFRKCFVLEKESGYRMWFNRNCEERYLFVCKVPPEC

Chain of VEGF165 (P15692 other isoform, or with tags, fused parts or gaps): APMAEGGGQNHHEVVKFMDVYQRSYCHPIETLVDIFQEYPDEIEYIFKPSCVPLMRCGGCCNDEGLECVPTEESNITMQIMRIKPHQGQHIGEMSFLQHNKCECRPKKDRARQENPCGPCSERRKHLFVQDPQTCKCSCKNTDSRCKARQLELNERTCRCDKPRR

B1: RNA132 (ssRNA)
RNA: GGGAGGGAAUCAGUGAAUGCUUAUACAUCCCUCCUUGAGCAGUCGAUUAGUUUCGACAGGAGGCUCAC
**Q.** How did the Kd (VEGF165) turn out when B1 was run?
**A.** 5.7 nM

**Q.** And the Kd [1]?
**A.** 5.7 nM
